Literature values, collected in patent publication EP4748396A1, “PHARMACEUTICAL COMPOSITION CONTAINING ANTI-NECTIN4 ANTIBODY-DRUG CONJUGATE AND ANTI-PD-1 ANTIBODY AND USE THEREOF” (priority 2023, dated 2025).

Conditions: 2019 FDA announcement

Enfortumab Vedotin [PADCEV]
skin adverse reactions: may cause severe skin adverse reactions, including Stevens-Johnson syndrome (SJS) and toxic epidermal necrolysis (TEN)
